According to US20240317841A1:
Changes are numbered by the printed parent chain.

B1: FHF11 (antibody, V domains shown)
VH: QVQLQQSGPGLVKPSQTLSVTCGISGDSVSSHSAAWNWIRQSPSRGLEWLGRTYYRSKWYNDYAVSVKSRITINPDTSKNQFSLQLISVTPEDTAVYYCARVGAMTFGLLTGGMDVWGQGTTVTVSS
VL: EIVLTQSPGTQSLSPGERATLSCRASQSLSRSYLAWYQQRPGKPPRLLIYGASSRATGIPDRFSGSGSGTDFSLTISSLEPEDSAMYFCQYYGDSPLFSFGPGTKVDIK
B2: FHF11v3 (antibody, V domains shown)
VH: B1 VH with H32Y
VL: B1 VL
B3: FHF11v9 (antibody, V domains shown)
VH: B1 VH with H32Y, K58G
VL: B1 VL
B4: FHF12 (antibody, V domains shown)
VH: B1 VH with G23A, I87V, M105A, L109I
VL: B1 VL with E17D
B5: FHF11v6 (antibody, V domains shown)
VH: B1 VH with K58G
VL: B1 VL

Legend:
H17 (Influenza A virus) [1] = test: FACS, HA on mammalian cells; 2nd only 4.1
H4 (Influenza A virus) [2] = test: FACS, HA on mammalian cells; 2nd only 11
H13 (Influenza A virus) [3] = test: FACS, HA on mammalian cells; 2nd only 12
H15 (Influenza A virus) [4] = test: FACS, HA on mammalian cells; 2nd only 12
H14 (Influenza A virus) [5] = test: FACS, HA on mammalian cells; 2nd only 12
H13 (Influenza A virus) [6] = test: flow cytometry, HA on mammalian cells; mock cells 0.96
H11 (Influenza A virus) [7] = test: as above
H12 (Influenza A virus) [8] = test: as above
H8 (Influenza A virus) [9] = test: as above
H4 (Influenza A virus) [10] = test: as above
H10 (Influenza A virus) [11] = test: as above
H18 (Influenza A virus) [12] = test: FACS, HA on mammalian cells; 2nd only 5.5
H16 (Influenza A virus) [13] = test: FACS, HA on mammalian cells; 2nd only 6.9
H12 (Influenza A virus) [14] = test: FACS, HA on mammalian cells; 2nd only 9.7
[15] = biological target: HA from an H1N1 Swine Eurasian avian-like (EA) strain, A/Swine/Jiangsu/J004/2018 (influenza A virus (H1N1, A/Swine/Jiangsu/J004/2018)); test: flow cytometry, HA on mammalian cells; mock 4.30
[16] = biological target: H5 hemagglutinin (influenza A virus); test: BLI, HA-5
[17] = biological target: H1-SC (Influenza A virus); test: FACS, HA on mammalian cells; 2nd only 7.5
H16 (Influenza A virus) [18] = test: flow cytometry, HA on mammalian cells; mock cells 0.96 [cont'd]
H17 (Influenza A virus) [19] = test: as above
H15 (Influenza A virus) [20] = test: as above
H18 (Influenza A virus) [21] = test: as above
H14 (Influenza A virus) [22] = test: as above
[23] = biological target: H5 hemagglutinin (influenza A virus); test: BLI, HA-5; printed as kdis
[24] = biological target: H7 hemagglutinin (influenza A virus); test: BLI, HA-7; printed as kdis
[25] = biological target: H1-CAL (Influenza A virus); test: FACS, HA on mammalian cells; 2nd only 7.4
[26] = biological target: HA from an H1N1 Swine Eurasian avian-like (EA) strain, A/Swine/Jiangsu/J004/2018 (influenza A virus (H1N1, A/Swine/Jiangsu/J004/2018)); test: flow cytometry, HA on mammalian cells; mock 3.31 [Cont'd]
[27] = biological target: H7 hemagglutinin (influenza A virus); test: BLI, HA-7
H10 (Influenza A virus) [28] = test: FACS, HA on mammalian cells; 2nd only 8.7
[29] = biological target: HA from an H1N1 Swine Eurasian avian-like (EA) strain, A/Swine/Jiangsu/J004/2018 (influenza A virus (H1N1, A/Swine/Jiangsu/J004/2018)); test: flow cytometry, HA on mammalian cells; mock 7.62 [Cont'd]
H8 (Influenza A virus) [30] = test: FACS, HA on mammalian cells; 2nd only 7.9
H11 (Influenza A virus) [31] = test: FACS, HA on mammalian cells; 2nd only 8.1
[32] = biological target: HA from an H1N1 Swine Eurasian avian-like (EA) strain, A/Swine/Jiangsu/J004/2018 (influenza A virus (H1N1, A/Swine/Jiangsu/J004/2018)); test: flow cytometry, HA on mammalian cells; mock 4.41
[33] = biological target: H5 hemagglutinin (influenza A virus); test: BLI, HA-5 [Cont'd]
[34] = biological target: H7 hemagglutinin (influenza A virus); test: BLI, HA-7 [Cont'd]
[35] = biological target: H7 hemagglutinin (influenza A virus); test: BLI, HA-7; given as kdis
[36] = biological target: H5 hemagglutinin (influenza A virus); test: BLI, HA-5; given as kdis
H16 (Influenza A virus) [37] = test: flow cytometry, HA on mammalian cells; mock cells 1.12 [cont'd]
H17 (Influenza A virus) [38] = test: as above
H15 (Influenza A virus) [39] = test: as above
H18 (Influenza A virus) [40] = test: as above
H14 (Influenza A virus) [41] = test: as above
H13 (Influenza A virus) [42] = test: flow cytometry, HA on mammalian cells; mock cells 1.12
H11 (Influenza A virus) [43] = test: as above
H12 (Influenza A virus) [44] = test: as above
H8 (Influenza A virus) [45] = test: as above
H4 (Influenza A virus) [46] = test: as above
H10 (Influenza A virus) [47] = test: as above

Row | Binder | % cells binding to HA (H17 (Influenza A virus) [1]) [%] | % cells binding to HA (H4 (Influenza A virus) [2]) [%] | % cells binding to HA (H13 (Influenza A virus) [3]) [%] | % cells binding to HA (H15 (Influenza A virus) [4]) [%] | % cells binding to HA (H14 (Influenza A virus) [5]) [%] | % cells binding to HA (H18 (Influenza A virus) [12]) [%] | % cells binding to HA (H16 (Influenza A virus) [13]) [%] | % cells binding to HA (H12 (Influenza A virus) [14]) [%] | Kd [16] [nM] | kon [16] [M⁻¹ s⁻¹] | % cells binding to HA [17] [%] | koff [23] [s⁻¹] | koff [24] [s⁻¹] | % cells binding to HA [25] [%] | Alexa 647-A+ (percent of cells) at 2 µg/ml [26] | Kd [27] [nM] | kon [27] [M⁻¹ s⁻¹] | % cells binding to HA (H10 (Influenza A virus) [28]) [%] | % cells binding to HA (H8 (Influenza A virus) [30]) [%] | % cells binding to HA (H11 (Influenza A virus) [31]) [%] | also measured
1 | B1 | 82 | 54 | 79 | 76 | 79 | 80 | 20 | 86 | < 0.001 | 19900 | 83 | < 1e-07 | 4.95e-05 | 88 | 89.2 | 2.03 | 24400 | 82 | 80 | 62 | percent of cells in the gate (H13 (Influenza A virus) [6]): 75.8; percent of cells in the gate (H11 (Influenza A virus) [7]): 42.7; percent of cells in the gate (H12 (Influenza A virus) [8]): 79.1; percent of cells in the gate (H8 (Influenza A virus) [9]): 89.2; percent of cells in the gate (H4 (Influenza A virus) [10]): 40.6; percent of cells in the gate (H10 (Influenza A virus) [11]): 89.7; Alexa 647-A+ (percent of cells) at 50 µg/ml [15]: 90.7; percent of cells in the gate (H16 (Influenza A virus) [18]): 23.2; percent of cells in the gate (H17 (Influenza A virus) [19]): 98.2; percent of cells in the gate (H15 (Influenza A virus) [20]): 75.6; percent of cells in the gate (H18 (Influenza A virus) [21]): 94.3; percent of cells in the gate (H14 (Influenza A virus) [22]): 75.2; Alexa 647-A+ (percent of cells) at 0.4 µg/ml [29]: 84.5; Alexa 647-A+ (percent of cells) at 10 µg/ml [32]: 90.7
2 | B2 | 82 | 48 | 79 | 66 | 70 | 79 | 22 | 85 | < 0.001 | 16400 | 82 | < 1e-07 | 0.000118 | 84 | – | 5.11 | 23000 | 77 | 78 | 59 | –
3 | B3 | 82 | 47 | 75 | 63 | 70 | 78 | 13 | 86 | – | – | 80 | – | – | 85 | – | – | – | 79 | 78 | 59 | Kd [33]: < 0.001 nM; kon [33]: 16200 M⁻¹ s⁻¹; Kd [34]: 9.76 nM; kon [34]: 19800 M⁻¹ s⁻¹; koff [35]: 0.000193 s⁻¹; koff [36]: < 1e-07 s⁻¹
4 | B4 | – | – | – | – | – | – | – | – | – | – | – | – | – | – | 90.5 | – | – | – | – | – | percent of cells in the gate (H16 (Influenza A virus) [37]): 25.7; percent of cells in the gate (H17 (Influenza A virus) [38]): 98; percent of cells in the gate (H15 (Influenza A virus) [39]): 77.2; percent of cells in the gate (H18 (Influenza A virus) [40]): 94.8; percent of cells in the gate (H14 (Influenza A virus) [41]): 80.4; percent of cells in the gate (H13 (Influenza A virus) [42]): 79.2; percent of cells in the gate (H11 (Influenza A virus) [43]): 37.8; percent of cells in the gate (H12 (Influenza A virus) [44]): 75.3; percent of cells in the gate (H8 (Influenza A virus) [45]): 89.6; percent of cells in the gate (H4 (Influenza A virus) [46]): 72.2; percent of cells in the gate (H10 (Influenza A virus) [47]): 88.5; Alexa 647-A+ (percent of cells) at 0.4 µg/ml [29]: 85.1; Alexa 647-A+ (percent of cells) at 10 µg/ml [32]: 90.6
5 | B5 | 82 | 49 | 69 | 75 | 70 | 79 | 11 | 87 | – | – | 82 | – | – | 85 | – | – | – | 82 | 77 | 59 | Kd [33]: < 0.001 nM; kon [33]: 13600 M⁻¹ s⁻¹; Kd [34]: 10.4 nM; kon [34]: 16400 M⁻¹ s⁻¹; koff [35]: 0.000169 s⁻¹; koff [36]: < 1e-07 s⁻¹
